Laboratory results reported in the Immune Epitope Database (IEDB).

Key:
HLA-B*07:02 = assay: IEDB peptide-MHC binding, purified MHC/direct/fluorescence; filed as Kd, often an IC50 or EC50 that approximates it; ≥ and ≤ were set here for values at or beyond the usual limits of such assays
HLA-A*03:01 = assay: as above
HLA-B*44:02 = assay: as above
HLA-A*01:01 = assay: as above
HLA-A*69:01 = assay: as above
HLA-B*35:01 = assay: as above
HLA-A*31:01 [1] = assay: as above
HLA-B*08:01 = assay: as above
HLA-A*02:01 [2] = assay: as above
HLA-A*26:01 = assay: as above
HLA-A*11:01 = assay: as above
HLA-B*27:05 = assay: as above
HLA-A*80:01 = assay: as above
HLA-A*02:01 [3] = assay: IEDB peptide-MHC binding, purified MHC/competitive/radioactivity; filed as Kd, often an IC50 or EC50 that approximates it; ≥ and ≤ were set here for values at or beyond the usual limits of such assays; settings: source organism: Dengue virus 3 China/80-2/1980
HLA-A*02:17 = assay: as above; settings: source organism: Dengue virus 3 China/80-2/1980
HLA-B*15:01 = assay: IEDB peptide-MHC binding, purified MHC/direct/fluorescence; filed as Kd, often an IC50 or EC50 that approximates it; ≥ and ≤ were set here for values at or beyond the usual limits of such assays
HLA-B*58:01 = assay: as above
HLA-B*40:01 = assay: as above
HLA-B*39:01 = assay: as above; settings: source organism: Giardia lamblia ATCC 50803
HLA-A*31:01 [4] = assay: IEDB peptide-MHC binding, purified MHC/competitive/fluorescence; filed as Kd, often an IC50 or EC50 that approximates it; ≥ and ≤ were set here for values at or beyond the usual limits of such assays; settings: source organism: Mycobacterium tuberculosis variant bovis BCG str. Pasteur 1173P2
HLA-A*24:03 = assay: IEDB peptide-MHC binding, purified MHC/direct/fluorescence; filed as Kd, often an IC50 or EC50 that approximates it; ≥ and ≤ were set here for values at or beyond the usual limits of such assays; settings: source organism: Corynebacterium glutamicum
[5] = source organism: Vibrio parahaemolyticus
[6] = source organism: Giardia lamblia ATCC 50803
[7] = source organism: Yersinia pestis
[8] = source organism: Mammarenavirus lassaense
[9] = source organism: Haemophilus influenzae
[10] = source organism: Corynebacterium glutamicum

Sequence: AFDWPELEF
- Kd (HLA-B*07:02; [5]): ≥ 20 µM
- Kd (HLA-A*03:01; [5]): ≥ 20 µM
- Kd (HLA-B*44:02; [5]): ≥ 20 µM
- Kd (HLA-A*01:01; [5]): ≥ 20 µM
- Kd (HLA-A*69:01; [5]): ≥ 20 µM
- Kd (HLA-B*35:01; source organism: Vibrio vulnificus): 0.0772 µM
- Kd (HLA-A*31:01 [1]; [5]): ≥ 20 µM
- Kd (HLA-B*08:01; [5]): ≥ 20 µM
- Kd (HLA-A*02:01 [2]; [5]): ≥ 20 µM
- Kd (HLA-A*26:01; [5]): ≥ 20 µM
- Kd (HLA-A*11:01; [5]): ≥ 20 µM
- Kd (HLA-B*27:05; [5]): ≥ 20 µM

Sequence: AIDLDPVVY
- Kd (HLA-A*80:01; source organism: Dengue virus 1 Singapore/S275/1990): ≥ 5 µM

Sequence: ALFSGVSWIM
- Kd (HLA-A*02:01 [3]): 0.00661 µM
- Kd (HLA-A*02:17): 0.202 µM

Sequence: ARADGILRF
- Kd (HLA-B*15:01; [6]): ≥ 20 µM
- Kd (HLA-B*07:02; [6]): ≥ 20 µM
- Kd (HLA-A*03:01; [6]): ≥ 20 µM
- Kd (HLA-B*44:02; [6]): ≥ 20 µM
- Kd (HLA-A*01:01; [6]): ≥ 20 µM
- Kd (HLA-B*58:01; [6]): ≥ 20 µM
- Kd (HLA-A*69:01; [6]): ≥ 20 µM
- Kd (HLA-B*35:01; [6]): 4.03 µM
- Kd (HLA-A*31:01 [1]; [6]): ≥ 20 µM
- Kd (HLA-B*08:01; [6]): ≥ 20 µM
- Kd (HLA-B*40:01; [6]): 3.17 µM
- Kd (HLA-A*02:01 [2]; [6]): ≥ 20 µM
- Kd (HLA-A*26:01; [6]): ≥ 20 µM
- Kd (HLA-A*11:01; [6]): ≥ 20 µM
- Kd (HLA-B*39:01): 2.56 µM
- Kd (HLA-B*27:05; [6]): 0.201 µM

Sequence: AVFEIFFRK
- Kd (HLA-A*31:01 [4]): 0.0617 µM
- Kd (HLA-A*11:01; source organism: Mycobacterium tuberculosis): 0.0126 µM

Sequence: DLRPYGLIK
- Kd (HLA-A*01:01; [7]): ≥ 20 µM
- Kd (HLA-A*80:01; [7]): ≥ 20 µM

Sequence: DTPGERNPY
- Kd (HLA-A*01:01; [8]): ≥ 20 µM
- Kd (HLA-A*80:01; [8]): ≥ 20 µM

Sequence: EIKFNDITF
- Kd (HLA-B*15:01; [9]): ≥ 20 µM
- Kd (HLA-B*07:02; [9]): 1.06 µM
- Kd (HLA-A*03:01; [9]): ≥ 20 µM
- Kd (HLA-A*01:01; [9]): ≥ 20 µM
- Kd (HLA-B*58:01; [9]): ≥ 20 µM
- Kd (HLA-A*69:01; [9]): ≥ 20 µM
- Kd (HLA-B*35:01; [9]): 0.0509 µM
- Kd (HLA-A*31:01 [1]; [9]): ≥ 20 µM
- Kd (HLA-B*08:01; [9]): 2.64 µM
- Kd (HLA-B*40:01; [9]): ≥ 20 µM
- Kd (HLA-A*02:01 [2]; [9]): ≥ 20 µM
- Kd (HLA-A*26:01; [9]): 0.568 µM
- Kd (HLA-A*11:01; [9]): ≥ 20 µM
- Kd (HLA-B*27:05; [9]): ≥ 20 µM

Sequence: FAAAAARTL
- Kd (HLA-B*15:01; [10]): 0.296 µM
- Kd (HLA-B*07:02; [10]): 0.122 µM
- Kd (HLA-A*03:01; [10]): ≥ 20 µM
- Kd (HLA-A*01:01; [10]): ≥ 20 µM
- Kd (HLA-B*58:01; [10]): 2.38 µM
- Kd (HLA-B*35:01; [10]): 0.00517 µM
- Kd (HLA-A*31:01 [1]; [10]): ≥ 20 µM
- Kd (HLA-B*08:01; [10]): 2.34 µM
- Kd (HLA-B*40:01; [10]): 2.57 µM
- Kd (HLA-A*24:03): ≥ 20 µM
- Kd (HLA-A*02:01 [2]; [10]): ≥ 20 µM
- Kd (HLA-A*26:01; [10]): ≥ 20 µM
- Kd (HLA-A*11:01; [10]): ≥ 20 µM
- Kd (HLA-B*27:05; [10]): ≥ 20 µM
